Sequences and labels used below:
B1: 133, 136: human NgR1 mutant, listed residues mutated to alanine (protein)
chain: CPGACVCYNEPKVTTSCPQQGLQAVPVGIPAASQRIFLHGNRISHVPAASFRACRNLTILWLHSNVLARIDAAAFTGLALLEQLDLSDNAQLRSVDPATFHGLGRLATLALDRCGLQELGPGLFRGLAALQYLYLQDNALQALPDDTFRDLGNLTHLFLHGNRISSVPERAFRGLHSLDRLLLHQNRVAHVHPHAFRDLGRLMTLYLFANNLSALPTEALAPLRALQYLRLNDNPWVCDCRARPLWAWLQKFRGSSSEVPCSLPQRLAGRDLKRLAANDLQGCAVATGPYHPIWTGRATDEEPLGLPKCCQPDAADKASVLEPGRPASAGNALKGRVPPGDSPPGNGSGPRHINDSPFGTLPGSAEPPLTAVRPEGSEPPGFPTSGPRRRPGCSRKNRTRSHCRLGQAGSGGGGTGDSEGSGALPSLTCSLTPLGLALVLWTVLGPC
B2: D259N: human NgR1 mutant, asparagine substitution to mimic a human polymorphism (protein)
chain: B1 chain with A107H, A110H, D233N
B3: 127, 151: human NgR1 mutant, listed residues mutated to alanine (protein)
chain: B1 chain with H101A, A107H, A110H, R125A
B4: 202, 205, 250: human NgR1 mutant, listed residues mutated to alanine (protein)
chain: B1 chain with A107H, A110H, H176A, D179A, R224A
B5: 232, 234: human NgR1 mutant, listed residues mutated to alanine (protein)
chain: B1 chain with A107H, A110H, Y206A, F208A
B6: 127, 176: human NgR1 mutant, listed residues mutated to alanine (protein)
chain: B1 chain with H101A, A107H, A110H, D150A
B7: 63, 65: human NgR1 mutant, listed residues mutated to alanine (protein)
chain: B1 chain with F37A, H39A, A107H, A110H
B8: 189, 191: human NgR1 mutant, listed residues mutated to alanine (protein)
chain: B1 chain with A107H, A110H, R163A, S165A
B9: 158, 160: human NgR1 mutant, listed residues mutated to alanine (protein)
chain: B1 chain with A107H, A110H, Y132A, Y134A
B10: 296, 297, 300: human NgR1 mutant, listed residues mutated to alanine (protein)
chain: B1 chain with A107H, A110H, R270A, D271A, R274A
B11: 82, 179: human NgR1 mutant, listed residues mutated to alanine (protein)
chain: B1 chain with N56A, A107H, A110H, N153A
B12: 171, 172, 175, 176, 196, 199: human NgR1 mutant, listed residues mutated to alanine (protein)
chain: B1 chain with A107H, A110H, D145A, D146A, R149A, D150A, R170A, R173A
B13: 36, 38: human NgR1 mutant, listed residues mutated to alanine (protein)
chain: B1 chain with E10A, K12A, A107H, A110H
B14: 189, 191, 284: human NgR1 mutant, listed residues mutated to alanine (protein)
chain: B1 chain with A107H, A110H, R163A, S165A, E258A
B15: 182, 186: human NgR1 mutant, listed residues mutated to alanine (protein)
chain: B1 chain with A107H, A110H, H156A, H160A
B16: 202, 205, 227: human NgR1 mutant, listed residues mutated to alanine (protein)
chain: B1 chain with A107H, A110H, H176A, D179A, R201A
B17: 171, 172, 175, 176: human NgR1 mutant, listed residues mutated to alanine (protein)
chain: B1 chain with A107H, A110H, D145A, D146A, R149A, D150A
B18: 114, 117: human NgR1 mutant, listed residues mutated to alanine (protein)
chain: B1 chain with D88A, Q91A, A107H, A110H
B19: 277, 279: human NgR1 mutant, listed residues mutated to alanine (protein)
chain: B1 chain with A107H, A110H, K251A, R253A
B20: 196, 199: human NgR1 mutant, listed residues mutated to alanine (protein)
chain: B1 chain with A107H, A110H, R170A, R173A
B21: 267, 269: human NgR1 mutant, listed residues mutated to alanine (protein)
chain: B1 chain with A107H, A110H, R241A, R243A
B22: 189, 191, 237: human NgR1 mutant, listed residues mutated to alanine (protein)
chain: B1 chain with A107H, A110H, R163A, S165A, N211A
B23: 292, 296, 297, 300: human NgR1 mutant, listed residues mutated to alanine (protein)
chain: B1 chain with A107H, A110H, R266A, R270A, D271A, R274A
B24: 143, 144: human NgR1 mutant, listed residues mutated to alanine (protein)
chain: B1 chain with A107H, A110H, Q117A, E118A
B25: 202, 205: human NgR1 mutant, listed residues mutated to alanine (protein)
chain: B1 chain with A107H, A110H, H176A, D179A

The record followed here is patent US20090111753A1, “Nogo-A Polypeptide Fragments, Variant Nogo Receptor-1 Polypeptides, and Uses Thereof” (Yale University, priority 2004, published 2009).

Positions count from the first letter of the chain named. Numbers in names are those of the source.

The assay concerns NgR ligands. In words: Binding of alanine substituted NgR mutants to NgR ligands, summary categories. The following applies: AP-Nogo66, AP-B4C, AP-B4C66, AP-Lingo-1, AP-OMgp and AP-MAG; compared to wild type NgR. From the text:
To better define how multiple ligands bind to the NgR protein, we examined a series of Ala-substituted NgR for ligand binding activity. NgR mutagenesis was done using the Quick Change Multisite Directed Mutagenesis Kit (Stratagene catalog #200514). Human NgR1 was used as a template. Ala substitutions were generated for each of the charged residues predicted to be solvent accessible at the surface of the ligand binding domain of NgR (Barton, W. A., et al., Embo J. 22:3291-3302 (2003); He, X. L., et al., Neuron 38:177-185 (2003)). We generated mutants in which 1-8 surface residues localized within 5 A of one another were Ala-substituted. Because of the coiling nature of the LRR structure, as residues juxtaposed on the protein surface are commonly separated by approximately 25 residues in the primary structure. In addition to mutations in specific charged surface patches, other mutations were targeted to glycosylation sites and to regions predicted to be involved in ligand binding based on the NgR structure (Barton, W. A., et al., Embo J. 22:3291-3302 (2003); He, X. L., et al., Neuron 38:177-185 (2003)). In addition, a variant corresponding to a human polymorphism was examined (D259N). None of the mutations altered the Leu residues that define the LRR structure itself or the Cys residues critical in the amino and carboxyl terminal capping domains. The vast majority of such Ala surface substitution mutants were expressed as immunoreactive polypeptides with a molecular weight and an expression level indistinguishable from wild type NgR (FIG. 4C and data not shown).
This collection of 74 individual NgR mutants was interrogated for AP-Nogo-66, AP-Amino-Nogo-B4C, AP-MAG, AP-OMgp, and AP-Lingo-1 binding. AP-Nogo66, AP-MAG, AP-OMGP and AP-Lingo-1 constructs are described elsewhere (Fournier, A. E., et al., Nature 409:341-346 (2001); Liu, B. P., et al., Science 297:1190-1193 (2002); Mi, S., et al., Nat. Neurosci. 7:221-228 (2004); Wang, K. C., et al., Nature 417:941-944 (2002b)). The properties of the NgR mutants fell into one of three major categories (Table II and FIG. 5). A number of Ala substituted NgR polypeptides bound all of the ligands at wild type levels. […] In addition, a significant extent of the concave surface is dispensable for ligand binding.
Alanine substituted NgR mutants were tested for their binding to AP-Nogo66, AP-B4C, AP-B4C66, AP-Lingo-1, AP-OMgp and AP-MAG and they fall into three categories: (1) Mutants that lose binding to all NgR ligands. (2) Mutants that still maintain binding to all NgR ligands. […] The D259N mutant is an asparagine substitution to mimic a human polymorphism.
As for B1, the “ligand binding category of NgR mutant (Table II)” value (from here on “ligand binding category”) is “No binding”.
Then B2, with “Binding to all ligands”; and B3, with “Binding to all ligands”; and B4, with “Binding to all ligands”.
Then B5, with “No binding”; and B6, with “Binding to all ligands”.
On to B7, for which the “ligand binding category” value was “Binding to all ligands”.
In the case of B8 it was “Binding to all ligands”; in that of B9, “No binding”; in that of B10, “Binding to all ligands”.
In the case of B11 it was “No binding”; in that of B12, “Binding to all ligands”; in that of B13, “Binding to all ligands”.
Then B14, with “Binding to all ligands”; and B15, with “No binding”.
As for B16, the “ligand binding category” value is recorded as “Binding to all ligands”.
Then B17, with “Binding to all ligands”.
Then B18, with “Binding to all ligands”.
Take B19: the “ligand binding category” value is “Binding to all ligands”.
Then B20, with “Binding to all ligands”.
Then B21, with “Binding to all ligands”; and B22, with “Binding to all ligands”; and B23, with “Binding to all ligands”.
With B24, the “ligand binding category” value is on record as “Binding to all ligands”.
Then B25, with “Binding to all ligands”.
